This note sets out measurements from US10377818B2, “Method of treating glioma” (The Board of Trustees of the Leland Stanford Junior …, priority 2015, dated 2019).

In this test the test system is SU-pcGBM2 cells. Nature of the test: EdU incorporation assay, proliferation index of pHGG cells (SU-pcGBM2). The class given is cell-based, human.

B1: NLGN2: Recombinant soluble neuroligin-2 (protein, UniProt Q8NFZ4 15-677, looked up)
extracellular domain: QRGGGGPGGGAPGGPGLGLGSLGEERFPVVNTAYGRVRGVRRELNNEILGPVVQFLGVPYATPPLGARRFQPPEAPASWPGVRNATTLPPACPQNLHGALPAIMLPVWFTDNLEAAATYVQNQSEDCLYLNLYVPTEDGPLTKKRDEATLNPPDTDIRDPGKKPVMLFLHGGSYMEGTGNMFDGSVLAAYGNVIVATLNYRLGVLGFLSTGDQAAKGNYGLLDQIQALRWLSENIAHFGGDPERITIFGSGAGASCVNLLILSHHSEGLFQKAIAQSGTAISSWSVNYQPLKYTRLLAAKVGCDREDSAEAVECLRRKPSRELVDQDVQPARYHIAFGPVVDGDVVPDDPEILMQQGEFLNYDMLIGVNQGEGLKFVEDSAESEDGVSASAFDFTVSNFVDNLYGYPEGKDVLRETIKFMYTDWADRDNGEMRRKTLLALFTDHQWVAPAVATAKLHADYQSPVYFYTFYHHCQAEGRPEWADAAHGDELPYVFGVPMVGATDLFPCNFSKNDVMLSAVVMTYWTNFAKTGDPNQPVPQDTKFIHTKPNRFEEVVWSKFNSKEKQYLHIGLKPRVRDNYRANKVAFWLELVPHLHNLHTELFTTTTRLPPYATRWPPRPPAGAPGTRRPPPPATLPPEPEPEPGPRAYDRFPGDSRDYSTELS
modifications: extracellular domain
For the molecule B1, the “effect on pHGG cell proliferation” value (recombinant NLGN2 at 1, 10 or 100 nM for 24 hours) is listed as “No effect of NLGN2 on pHGG cell proliferation was observed”.

B2: brevican: Recombinant candidate protein from proteomic analyses of cortical slice conditioned media (protein, UniProt Q96GW7 23-911, looked up)
Brevican core protein: DVLEGDSSEDRAFRVRIAGDAPLQGVLGGALTIPCHVHYLRPPPSRRAVLGSPRVKWTFLSRGREAEVLVARGVRVKVNEAYRFRVALPAYPASLTDVSLALSELRPNDSGIYRCEVQHGIDDSSDAVEVKVKGVVFLYREGSARYAFSFSGAQEACARIGAHIATPEQLYAAYLGGYEQCDAGWLSDQTVRYPIQTPREACYGDMDGFPGVRNYGVVDPDDLYDVYCYAEDLNGELFLGDPPEKLTLEEARAYCQERGAEIATTGQLYAAWDGGLDHCSPGWLADGSVRYPIVTPSQRCGGGLPGVKTLFLFPNQTGFPNKHSRFNVYCFRDSAQPSAIPEASNPASNPASDGLEAIVTVTETLEELQLPQEATESESRGAIYSIPIMEDGGGGSSTPEDPAEAPRTLLEFETQSMVPPTGFSEEEGKALEEEEKYEDEEEKEEEEEEEEVEDEALWAWPSELSSPGPEASLPTEPAAQEESLSQAPARAVLQPGASPLPDGESEASRPPRVHGPPTETLPTPRERNLASPSPSTLVEAREVGEATGGPELSGVPRGESEETGSSEGAPSLLPATRAPEGTRELEAPSEDNSGRTAPAGTSVQAQPVLPTDSASRGGVAVVPASGDCVPSPCHNGGTCLEEEEGVRCLCLPGYGGDLCDVGLRFCNPGWDAFQGACYKHFSTRRSWEEAETQCRMYGAHLASISTPEEQDFINNRYREYQWIGLNDRTIEGDFLWSDGVPLLYENWNPGQPDSYFLSGENCVVMVWHDQGQWSDVPCNYHLSYTCKMGLVSCGPPPELPLAQVFGRPRLRYEVDTVLRYRCREGLAQRNLPLIRCQENGRWEAPQISCVPRRPARALHPEEDPEGRQGRLLGRWKALLIPPSSPMPGP
Turning to B2, the “effect on proliferation index relative to aCSF control” value (recombinant candidate proteins at 100 nM for 24 hours) is “did not differ”.
